Measured values taken from publication PMC6414199, “Bim escapes displacement by BH3-mimetic anti-cancer drugs by double-bolt locking both Bcl-XL and Bcl-2” (eLife, 2019).
Values belong to the binder of their own block, whether it stands above or below them.

Columns and labels:
mCerulean3-Bcl-XL = target: T1, mCerulean3-Bcl-XL (human, UniProt Q07817-1 1-233); test: FRET or BRET; FLIM-FRET in live MCF-7 cells: mCer3-Bcl-XL or mCer3-Bcl-2 stably expressed (donor), Venus-BH3 protein transiently expressed (acceptor); binding curves of FLIM-FRET efficiency against the Venus:mCer3 intensity ratio, 25 C; untreated, DMSO, 20 uM ABT-263 (18-24 h) or 1.25-20 uM A-1155463, A-1331852, ABT-263; R values interpolated at ratio 0.5 (Bcl-XL) or 0.25 (Bcl-2), ^VBad4E signal subtracted; settings: partners not purified
T1 construct: Bcl-XL, human; GGS linker between mCerulean3 and Bcl-XL; also called ^CBcl-XL; ^cBcl-XL; source: MCF-7 and BMK-DKO, stably transfected clones, in live cells; not shown: mCerulean3, N-terminal, kept
T1 sequence (Q07817 whole entry): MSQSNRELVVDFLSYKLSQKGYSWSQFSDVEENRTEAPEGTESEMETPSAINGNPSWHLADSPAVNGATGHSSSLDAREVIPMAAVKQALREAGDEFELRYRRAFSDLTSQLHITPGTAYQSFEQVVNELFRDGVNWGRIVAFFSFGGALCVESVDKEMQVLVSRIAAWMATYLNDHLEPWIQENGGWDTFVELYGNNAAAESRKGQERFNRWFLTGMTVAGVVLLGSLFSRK

mCerulean3-Bcl-2 = target: T2, mCerulean3-Bcl-2 (human, UniProt P10415 1-239); test: as above; settings: partners not purified
T2 construct: Bcl-2, human; GGS linker between mCerulean3 and Bcl-2; also called ^CBcl-2; ^cBcl-2; source: MCF-7, stably transfected clone, in live cells; not shown: mCerulean3, N-terminal, kept
T2 sequence (P10415 whole entry): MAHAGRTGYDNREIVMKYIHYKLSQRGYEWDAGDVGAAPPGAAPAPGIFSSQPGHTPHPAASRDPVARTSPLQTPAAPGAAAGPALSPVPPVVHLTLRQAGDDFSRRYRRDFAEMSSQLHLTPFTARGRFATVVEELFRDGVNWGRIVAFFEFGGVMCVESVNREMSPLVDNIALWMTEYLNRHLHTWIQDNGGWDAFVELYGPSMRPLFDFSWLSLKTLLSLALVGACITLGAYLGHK

[1] = target: T3, Bcl-XL single-cysteine mutant 152C, Alexa647-labelled (human, UniProt Q07817-1 1-233, Alexa 647-maleimide on the single cysteine at 152); test: FRET or BRET; 4 nM Alexa568-labelled BimL or BimL-dCTS with increasing Alexa647-labelled Bcl-XL in samples containing mouse liver mitochondria; apparent Kd; settings: both partners purified
T3 sequence (Q07817 other isoform, or with tags, fused parts or gaps mutant): as the sequence (Q07817 whole entry) above, with V152C counted along it

[2] = target: T3, Bcl-XL single-cysteine mutant 152C, …; test: FRET or BRET; purified Alexa568-labelled BH3 protein (10 nM) and Alexa647-labelled Bcl-XL (40 nM) with liposomes, ABT-263 titrated in; 37 C, 1 h; relative displacements, not absolute affinity; settings: both partners purified
[3] = target: T3, Bcl-XL single-cysteine mutant 152C, …; test: FRET or BRET; purified proteins with liposomes, protein binding (FRET) and liposome permeabilization measured at the same time, ABT-263 titrated; settings: both partners purified

B1: Venus-BimEL (natural protein, mouse, UniProt O54918-1 1-196, looked up)
chain: MAKQPSDVSSECDREGGQLQPAERPPQLRPGAPTSLQTEPQGNPDGEGDRCPHGSPQGPLAPPASPGPFATRSPLFIFVRRSSLLSRSSSGYFSFDTDRSPAPMSCDKSTQTPSPPCQAFNHYLSAMASIRQSQEEPEDLRPEIRIAQELRRIGDEFNETYTRRVFANDYREAEDHPQMVILQLLRFIFRLVWRRH
notes: BimEL, mouse; GGS linker after Venus; also called ^VBimEL; ^vBimEL; source: MCF-7 and BMK-DKO, transiently transfected, in live cells; not shown: Venus, N-terminal, kept
R_(ABT-263), % of FRET signal left with 20 uM ABT-263 (mCerulean3-Bcl-XL): 86.3%
R_(ABT-263), % of FRET signal left with 20 uM ABT-263 (mCerulean3-Bcl-2): 83.1%

B2: Venus-BimEL-CTS2A (natural protein, mouse, UniProt O54918-1 1-196, looked up)
chain: MAKQPSDVSSECDREGGQLQPAERPPQLRPGAPTSLQTEPQGNPDGEGDRCPHGSPQGPLAPPASPGPFATRSPLFIFVRRSSLLSRSSSGYFSFDTDRSPAPMSCDKSTQTPSPPCQAFNHYLSAMASIRQSQEEPEDLRPEIRIAQELRRIGDEFNETYTRRVFANDYREAEDHPQMVILQLLAFIFALVWRRH
notes: BimEL, mouse; also called ^VBim-CTS2A; ^vBimEL-CTS2A; source: MCF-7, transiently transfected, in live cells; not shown: Venus, N-terminal, kept
R_(ABT-263), % of FRET signal left with 20 uM ABT-263 (mCerulean3-Bcl-XL): 88.8%
R_(ABT-263), % of FRET signal left with 20 uM ABT-263 (mCerulean3-Bcl-2): 80.7%

B3: Venus-BimEL-I146Y (natural protein, mouse, UniProt O54918-1 1-196, looked up)
chain: MAKQPSDVSSECDREGGQLQPAERPPQLRPGAPTSLQTEPQGNPDGEGDRCPHGSPQGPLAPPASPGPFATRSPLFIFVRRSSLLSRSSSGYFSFDTDRSPAPMSCDKSTQTPSPPCQAFNHYLSAMASIRQSQEEPEDLRPEIRYAQELRRIGDEFNETYTRRVFANDYREAEDHPQMVILQLLRFIFRLVWRRH
notes: BimEL, mouse; also called ^vBimEL-I146Y; source: MCF-7, transiently transfected, in live cells; not shown: Venus, N-terminal, kept
R_(ABT-263), % of FRET signal left with 20 uM ABT-263 (mCerulean3-Bcl-XL): 88.7%
R_(ABT-263), % of FRET signal left with 20 uM ABT-263 (mCerulean3-Bcl-2): 65.3%

B9: BimL-dCTS, Alexa568-labelled (domain or fragment)
chain: MAKQPSDVSSECDREGGQLQPAERPPQLRPGAPTSLQTEPCDRSPAPMSCDKSTQTPSPPCQAFNHYLSAMASIRQSQEEPEDLRPEIRIAQELRRIGDEFNETYTRRVFANDYREAEDHP
modifications: Alexa568 on a single cysteine
Kd [1]: 35 ± 5 nM
IC50 of ABT-263 for displacing the pair [2]: ~200 nM

B10: BimL single-cysteine mutant 41C, Alexa568-labelled (natural protein)
chain: MAKQPSDVSSECDREGGQLQPAERPPQLRPGAPTSLQTEPCDRSPAPMSCDKSTQTPSPPCQAFNHYLSAMASIRQSQEEPEDLRPEIRIAQELRRIGDEFNETYTRRVFANDYREAEDHPQMVILQLLRFIFRLVWRRH
modifications: Alexa 568-maleimide on the single cysteine at 41
Kd [1]: 3 ± 1 nM
IC50 of ABT-263 for displacing the pair [2]: > 4000 nM
IC50 of ABT-263 for FRET of the pair [3]: > 700 nM

Now from value to binder:

R_(ABT-263), % of FRET signal left with 20 uM ABT-263 (mCerulean3-Bcl-XL): 40%
R_(ABT-263), % of FRET signal left with 20 uM ABT-263 (mCerulean3-Bcl-2): 36.9%
B4: Venus-BimEL-I146Y-L185E (natural protein, mouse, UniProt O54918-1 1-196, looked up)
chain: MAKQPSDVSSECDREGGQLQPAERPPQLRPGAPTSLQTEPQGNPDGEGDRCPHGSPQGPLAPPASPGPFATRSPLFIFVRRSSLLSRSSSGYFSFDTDRSPAPMSCDKSTQTPSPPCQAFNHYLSAMASIRQSQEEPEDLRPEIRYAQELRRIGDEFNETYTRRVFANDYREAEDHPQMVILQLERFIFRLVWRRH
notes: BimEL, mouse; also called ^vBimEL-I146Y-L185E; source: MCF-7, transiently transfected, in live cells; not shown: Venus, N-terminal, kept

R_(ABT-263), % of FRET signal left with 20 uM ABT-263 (mCerulean3-Bcl-XL): 63.9%
R_(ABT-263), % of FRET signal left with 20 uM ABT-263 (mCerulean3-Bcl-2): 73.3%
B5: Venus-BimEL-I181E (natural protein, mouse, UniProt O54918-1 1-196, looked up)
chain: MAKQPSDVSSECDREGGQLQPAERPPQLRPGAPTSLQTEPQGNPDGEGDRCPHGSPQGPLAPPASPGPFATRSPLFIFVRRSSLLSRSSSGYFSFDTDRSPAPMSCDKSTQTPSPPCQAFNHYLSAMASIRQSQEEPEDLRPEIRIAQELRRIGDEFNETYTRRVFANDYREAEDHPQMVELQLLRFIFRLVWRRH
notes: BimEL, mouse; also called ^vBimEL-I181E; source: MCF-7, transiently transfected, in live cells; not shown: Venus, N-terminal, kept

R_(ABT-263), % of FRET signal left with 20 uM ABT-263 (mCerulean3-Bcl-XL): 51%
R_(ABT-263), % of FRET signal left with 20 uM ABT-263 (mCerulean3-Bcl-2): 63%
B6: Venus-BimEL-I188E (natural protein, mouse, UniProt O54918-1 1-196, looked up)
chain: MAKQPSDVSSECDREGGQLQPAERPPQLRPGAPTSLQTEPQGNPDGEGDRCPHGSPQGPLAPPASPGPFATRSPLFIFVRRSSLLSRSSSGYFSFDTDRSPAPMSCDKSTQTPSPPCQAFNHYLSAMASIRQSQEEPEDLRPEIRIAQELRRIGDEFNETYTRRVFANDYREAEDHPQMVILQLLRFEFRLVWRRH
notes: BimEL, mouse; also called ^VBimEL-I188E; ^vBimEL-I188E; source: MCF-7, transiently transfected, in live cells; not shown: Venus, N-terminal, kept

R_(ABT-263), % of FRET signal left with 20 uM ABT-263 (mCerulean3-Bcl-XL): 41.9%
R_(ABT-263), % of FRET signal left with 20 uM ABT-263 (mCerulean3-Bcl-2): 51%
B7: Venus-BimEL-L185E (natural protein, mouse, UniProt O54918-1 1-196, looked up)
chain: MAKQPSDVSSECDREGGQLQPAERPPQLRPGAPTSLQTEPQGNPDGEGDRCPHGSPQGPLAPPASPGPFATRSPLFIFVRRSSLLSRSSSGYFSFDTDRSPAPMSCDKSTQTPSPPCQAFNHYLSAMASIRQSQEEPEDLRPEIRIAQELRRIGDEFNETYTRRVFANDYREAEDHPQMVILQLERFIFRLVWRRH
notes: BimEL, mouse; also called ^VBimEL-L185E; ^vBimEL-L185E; source: MCF-7, transiently transfected, in live cells; not shown: Venus, N-terminal, kept

R_(ABT-263), % of FRET signal left with 20 uM ABT-263 (mCerulean3-Bcl-XL): 70.1%
R_(ABT-263), % of FRET signal left with 20 uM ABT-263 (mCerulean3-Bcl-2): 64.8%
B8: Venus-BimEL-V192E (natural protein, mouse, UniProt O54918-1 1-196, looked up)
chain: MAKQPSDVSSECDREGGQLQPAERPPQLRPGAPTSLQTEPQGNPDGEGDRCPHGSPQGPLAPPASPGPFATRSPLFIFVRRSSLLSRSSSGYFSFDTDRSPAPMSCDKSTQTPSPPCQAFNHYLSAMASIRQSQEEPEDLRPEIRIAQELRRIGDEFNETYTRRVFANDYREAEDHPQMVILQLLRFIFRLEWRRH
notes: BimEL, mouse; also called ^VBimEL-V192E; ^vBimEL-V192E; source: MCF-7, transiently transfected, in live cells; not shown: Venus, N-terminal, kept
